Test [1] addresses soluble CD8αα (human) (UniProt P01732). The test is described as follows: method not given.
Test [2] has the same target. The test is described as follows: surface plasmon resonance, biotinylated pMHCI monomer.
Test [3] has the same target. The test is described as follows: surface plasmon resonance with sCD8αα wt; mean KD (n=3) printed over the bar, error bar drawn; sheet caption 'HLA A*0201 [..] tetramers'.
For test [4] the target is unchanged. The test is described as follows: surface plasmon resonance.

As for “A2Kb chimeric class I pMHCI (HLA A2 with the α3 domain of murine H-2K^b) (from UniProt P61769 21-119) (peptide-MHC)”, the Kd in test [1] was under 5 µM. For the substance “wild type HLA A*0201 biotinylated pMHCI monomer (from UniProt P61769 21-119) (peptide-MHC)”, the figures for the Kd in test [1], in test [2] and in test [3] were 128 µM, 135 µM and 128 µM, respectively.

With “245A substituted HLA A*68011 biotinylated pMHCI (from UniProt P61769 21-119) (peptide-MHC)”, the Kd in test [4] amounted to 102 µM. Same read-out and setting: then “wild type HLA A*68011 biotinylated pMHCI (from UniProt P61769 21-119) (peptide-MHC)”, with 980 µM.
